In PMC6451097, “YB-1, an abundant core mRNA-binding protein, has the capacity to form an RNA nucleoprotein filament: a structural analysis”:

Assays:
YB-1 CSD = YB-1 CSD (Homo sapiens, UniProt P67809 52-129); assay: NMR HSQC; 1:1; EMSA: 20 mM Hepes pH 7.5, 40 mM KCl, room temp, 5 min (SSB: 20 mM Tris-HCl pH 7.6, 300 mM KCl, 37 C, 15 min); NMR: 100 uM protein, 1:1 oligo, 298 K (RNA 298 and 303 K), NMR buffer not in material; details: protein: recombinant
YB-1C = YB-1C (Homo sapiens, UniProt P67809 1-180); assay: NMR HSQC; 1:1; monomer; EMSA: 20 mM Hepes pH 7.5, 40 mM KCl, room temp, 5 min (SSB: 20 mM Tris-HCl pH 7.6, 300 mM KCl, 37 C, 15 min); NMR: 100 uM protein, 1:1 oligo, 298 K (RNA 298 and 303 K), NMR buffer not in material; details: protein: recombinant; tags: His-tag (pET22b); untagged version also used
Sequence of YB-1C (P67809 1-180): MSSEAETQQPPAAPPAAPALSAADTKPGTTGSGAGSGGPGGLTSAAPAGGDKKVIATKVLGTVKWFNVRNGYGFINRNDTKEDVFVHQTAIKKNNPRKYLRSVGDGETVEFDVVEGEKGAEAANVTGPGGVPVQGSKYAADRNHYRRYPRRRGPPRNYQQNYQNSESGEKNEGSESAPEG

Sequence of YB-1 CSD (P67809 52-129): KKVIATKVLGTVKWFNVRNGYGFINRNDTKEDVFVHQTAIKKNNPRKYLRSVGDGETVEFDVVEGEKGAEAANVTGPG

Binder: CCCCCCCCCC (ssDNA) [dC10]
- binding result (YB-1 CSD): binds
- binding result (YB-1C): binds
